Laboratory results reported in the nanobody polyreactivity screen of Harvey et al. (2022).

Experiment: yeast display, Sf9 membrane polyspecificity reagent, FACS + sequencing; frameworks hold sequencing errors
Summary of the method: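 In a synthetic yeast display library (Saccharomyces cerevisiae BJ5465), nanobody expression was induced with galactose for 36–48 hours. FACS gates were set low and high (top ~1%) using anti-HA fluorescence for expression and streptavidin fluorescence for binding of the Sf9 membrane reagent. Each polyreactivity label is drawn from the gate of origin.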

| Sequence | polyreactivity (PSR sort gate) |
| --- | --- |
| QVQLVESGGGLVQAGGSLRLSCAASGSIFYSNAMGWYRQAPGKERELVAAISVSGVSTYYADSVKGRFTISRDNAKNTVYLQMNSLKPEDTAVYYCAADTGYRYDDYYWWGGEYDYWGQGTQVTVSS | low polyreactivity |
| QVQLVESGGGLVQAGGSLRLSCAASGSIFYSYAMGRYRQAPGKERELVAAITKSSGSTYYADSVKGRFTISRDNAKNTVYLQMNSLKPEDTAVYYCAATRYRPVRLYYWGQGTQVTVSS | high polyreactivity |
| QVQLVESGGGLVQAGGSLRLSCAASGSIFYSYAMGWYRQAPGKEREFVAAISWSASRTYYADSVKGRFTISRDNAKNTVYLQMNSLKPADTAVYDCAARTYYNRGYYYWGQGTQVTVSS | high polyreactivity |
| QVQLVESGGGLVQAGGSLRLSCAASGSIFYSYAMGWYRQAPGKERELVADITSSGGSTYYADSVKGRFTISRDNAKNTVYFQMNSLKPEDTAVYYCAASSPAFYGMRYNYWGHGTQVTVSS | low polyreactivity |
| QVQLVESGGGLVQAGGSLRLSCAASGSIFYTNAMGWYRQAPGKERELFASISRRGGSTYYADSVKGRFTISRDNAKNTVYLQMNSLKPEDTAVYYFATDGYTPYRWLWWLMDYWGQGTQVTVSS | high polyreactivity |
| QVQLVESGGGLVQAGGSLRLSCAASGSIFYTNAMGWYRQAPGKERELVAAIRWSGGRTYYADSVKGRFTISRDNAKNSVYLQMNSLKPEDTAVYYCNKVPRTPIPYKYGYWGQGTQVTVSS | high polyreactivity |
| QVQLVESGGGLVQAGGSLRLSCAASGSIFYTNAMGWYRQAPGKERELVASIRTGGSTNYADSVKGRFTISRDNAKNTVYLQMNSLKPEDTAVYYCNADDPDYHGSIDDLDYDYWGQGTQVTVSS | low polyreactivity |
| QVQLVESGGGLVQAGGSLRLSCAASGSIFYTYAMGWYRQAPGKERELVAAISWSDTTTYYAVSVKGRFTISRDSAKNTVYLQMNSLKPEDTAVYYFAADAYTNSYWYDYWGQGTQVTLSS | high polyreactivity |
| QVQLVESGGGLVQAGGSLRLSCAASGSIFYTYAMGWYRQAPGKERELVAAITYRVGSTYYADSVKGRFTISRDNAKNTVYLQMNSLKPEDTAVYYCNADKGGHVRHYDYWGQGTQVTVSS | low polyreactivity |
| QVQLVESGGGLVQAGGSLRLSCAASGSIFYTYAMGWYRQAPGKERELVADISSRGGSTYYADSVKGRFTISRDNAKNTVYLQMNSLKPEDTAVYYCNAPQGFVWRYSSWGPYDYWGQGTQVTVSS | high polyreactivity |
| QVQLVESGGGLVQAGGSLRLSCAASGSIFYTYVMGWYRQAPGKERELVAAISGTGGRTYYADSVKGRFTISRDNAKNTVYLQMTSLKPEDTAVYYCATRAYHKGFYRITYYYWGQGTQVTVSS | high polyreactivity |
| QVQLVESGGGLVQAGGSLRLSCAASGSIFYVNAMGWYRQAPGKEREFVADITWSSGGRTYYADSVKGRFTISRDNAKNTVYLQMNSLKPDDTAVYYCAAPRYYYYSYDYWGQGTQVTVSS | high polyreactivity |
| QVQLVESGGGLVQAGGSLRLSCAASGSIFYVNAMGWYRQAPGKESELVAAISFSGGTTYYADSVKGRFTISRDNAKNTVYLQMNSLKPEDTAVYYCNTPSSREMDYWGQGTQVTVSS | low polyreactivity |
| QVQLVESGGGLVQAGGSLRLSCAASGSIFYVNTMGWYRQAPGKEREFVAAISGSGGSTRYADSVKGRFTISRDNAKNTVYLQMNSLKPEDTAVYYCAADRYTYIWYHIYDYWGQGTQVTVSS | low polyreactivity |
| QVQLVESGGGLVQAGGSLRLSCAASGSIFYVNTMGWYRQAPGKERELVAGITSRGGSTYYADSVKGRFTISRDNAKNTVYLQMNSLKPEDTAVYYCAKRAYGTALYRGYGYWGQGTQVTVSS | low polyreactivity |
| QVQLVESGGGLVQAGGSLRLSCAASGSIFYVNTMGWYRQAPGKERELVAVIDYGGDSTYYADSVKGRFTISRDNAKNTVFLQMNSLKPEDTAVYYCAADAYESGNWEANGYWGQGTEVTVSS | low polyreactivity |
| QVQLVESGGGLVQAGGSLRLSCAASGSIFYVYAMGWYRQAPGKERELVAAISWRGGSTYYADSVKGRFTISRDIAKITVYLQMNSLKPEDTAVYYCNADWSFWGQGTQVTVSS | high polyreactivity |
